Results reported in US20250276076A1 (Seagen, published 2025).

What was measured:
human ALPPL2 (on cells) [1] = biological target: T1, human ALPPL2 (on cells) (human, UniProt P10696 20-503); experiment: flow cytometry on ALPPL2-expressing HEK293 cells
T1 construct: the construct in the cells is not further defined; also called HEK-ALPPL2 cells; ALPPL2-expressing LoVo cells
Description: (§1) Cynomolgus ALPP, human ALPP, ALPPL2, ALPI and ALPL-expressing HEK293 cells were used to evaluate specificity and binding affinity. Briefly, one hundred thousand target-expressing HEK293 cells were transferred to 96-well plates. Cells were pelleted by centrifugation and resuspended in 100 μL of PBS+2% w/v BSA. After blocking, cells were resuspended in PBS+2% w/v BSA with unlabeled monoclonal anti-ALPP/ALPPL2 antibodies ranging in concentration from 8 pM to 666 nM and incubated on ice for 30 minutes. Cells were washed twice in PBS and resuspended in R-PE labeled secondary goat anti-human or anti-mouse antibodies (Jackson Immunoresearch, West Grove, PA) for 30 minutes on ice. […] Fluorescence was analyzed using an Attune NxT flow cytometer, and the percent of saturated fluorescent signal was used to determine percent bound and to subsequently calculate apparent KD.

human ALPP (on cells) [2] = biological target: T2, human ALPP (on cells) (human, UniProt P05187 23-506); experiment: flow cytometry on ALPP-expressing HEK293 cells
T2 construct: the construct in the cells is not further defined; also called placental alkaline phosphatase; PLAP
T2 sequence (P05187 23-506 limits assumed): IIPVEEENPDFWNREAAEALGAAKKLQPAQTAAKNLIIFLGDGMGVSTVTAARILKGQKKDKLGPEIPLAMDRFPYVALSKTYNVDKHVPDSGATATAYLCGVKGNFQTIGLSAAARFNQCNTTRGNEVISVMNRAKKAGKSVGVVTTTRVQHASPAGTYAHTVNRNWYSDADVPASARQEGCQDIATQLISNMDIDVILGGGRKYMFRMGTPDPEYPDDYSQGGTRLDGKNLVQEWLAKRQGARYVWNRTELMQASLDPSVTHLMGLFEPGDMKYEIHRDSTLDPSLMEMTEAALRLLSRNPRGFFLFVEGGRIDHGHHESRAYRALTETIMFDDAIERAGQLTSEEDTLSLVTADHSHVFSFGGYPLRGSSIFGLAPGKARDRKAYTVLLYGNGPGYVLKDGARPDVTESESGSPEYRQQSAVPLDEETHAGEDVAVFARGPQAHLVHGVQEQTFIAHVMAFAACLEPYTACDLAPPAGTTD
Description: as §1

human ALPPL2 (on cells) [3] = biological target: T1, human ALPPL2 (on cells); experiment: flow cytometry saturation binding on ALPPL2-expressing HEK293 cells (row 'nM Kd' of the table under the plot)
Description: as §1

human ALPP (on cells) [4] = biological target: T2, human ALPP (on cells); experiment: flow cytometry saturation binding on ALPP-expressing HEK293 cells (row 'nM Kd' of the table under the plot)
Description: as §1

[5] = biological target: T3, soluble human ALPP-Fc fusion dimer (human, UniProt P05187 23-506); experiment: BLI (Octet), antibody on anti-human Fab-CH1 biosensors, hALPP Fc homodimer as analyte, pH 7.4, 37 °C, bivalent affinity
T3 construct: Made in CHO cells; also called hALPP; hALPP Fc
T3 sequence (P05187 23-506 limits assumed): as above
Description: (§2) Soluble human ALPP-Fc and ALPPL2-Fc fusion dimer proteins were generated in CHO cells to be used as the analyte. […] After reference subtraction of the probe only curve, the data was globally fit with a 1:1 model with the Rmax sensor unlinked.

[6] = biological target: T4, hFcγRIIb (biotinylated avi-tagged, fused with monomeric Fc) (human, UniProt P31994 43-217, biotin on avi tag); experiment: BLI (Octet HTX, 30 °C), biotinylated Fc receptor on streptavidin biosensors, ADC as analyte, 1:1 fit, pH 7.4
T4 construct: also called hFcγRIIb hmFc AAG avi Biotin
T4 sequence (looked up): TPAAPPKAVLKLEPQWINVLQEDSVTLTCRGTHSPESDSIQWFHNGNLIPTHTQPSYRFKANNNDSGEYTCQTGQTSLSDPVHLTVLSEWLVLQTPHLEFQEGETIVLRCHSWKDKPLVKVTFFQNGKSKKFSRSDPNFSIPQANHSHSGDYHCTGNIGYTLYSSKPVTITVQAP
Description: (§3) Biotinylated avi-tagged human Fc receptors fused with monomeric Fc (designed and expressed at Seagen) were loaded onto high precision streptavidin biosensors (from ForteBio) to responses around 0.4 nm for all receptors except for hFcγR1 with responses around 1.2 nm. An initial baseline was completed in immobilization buffer (0.1% BSA, 0.02% Tween 20, 1×PBS pH 7.4) followed by a second baseline in kinetic buffer (1% casein, 0.2% Tween 20, 1×PBS pH 7.4 for hFcγRI, IIa, IIIa, and IIb interactions and 1% BSA+0.2% Tween 20, Phosphate Citrate pH 6.0 for hscFcRN interactions). […] Sensorgrams were generated on an Octet HTX system (ForteBio) at 30° C. and globally fitted with the 1:1 kinetic Langmuir isotherm model (Rmax unlinked) after a reference subtraction of the antigen-loaded, 0 nM analyte sensor. Negative controls with the highest concentration of antibodies and ADCs (20 μM) with no Fc receptor immobilized were also included to verify the absence of nonspecific binding of the analyte to the streptavidin biosensors themselves. Specific loading concentrations and times of each receptor to the streptavidin sensors and concentrations of titrated analytes are listed (Table 12 and Table 13).

[7] = biological target: T5, hFcγRIIIa V158 (biotinylated avi-tagged, fused with monomeric Fc) (human, UniProt P08637 17-208, biotin on avi tag); experiment: as above
T5 construct: also called hFcγRIIIa V158 hmFc AAG avi Biotin
T5 sequence (P08637 17-208 F176V): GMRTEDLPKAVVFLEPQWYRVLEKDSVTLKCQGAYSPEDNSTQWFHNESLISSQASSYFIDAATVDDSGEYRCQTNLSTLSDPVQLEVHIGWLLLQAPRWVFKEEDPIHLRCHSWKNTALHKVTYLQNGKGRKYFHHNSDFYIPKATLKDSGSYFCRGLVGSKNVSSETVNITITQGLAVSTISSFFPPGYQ
Description: as §3

[8] = biological target: T6, hscFcRN (biotinylated avi-tagged, fused with monomeric Fc) (human, UniProt P55899 24-297; P61769 21-119, limits assumed, biotin on avi tag); experiment: BLI (Octet HTX, 30 °C), biotinylated hFcRN on streptavidin biosensors, ADC as analyte, 1:1 fit, pH 6.0
T6 construct: also called hFcRN; hscFcRN hmFc IHH A avi Biotin
T6 sequence (P55899 24-297 limits assumed, form in doubt, chain 1 of 2): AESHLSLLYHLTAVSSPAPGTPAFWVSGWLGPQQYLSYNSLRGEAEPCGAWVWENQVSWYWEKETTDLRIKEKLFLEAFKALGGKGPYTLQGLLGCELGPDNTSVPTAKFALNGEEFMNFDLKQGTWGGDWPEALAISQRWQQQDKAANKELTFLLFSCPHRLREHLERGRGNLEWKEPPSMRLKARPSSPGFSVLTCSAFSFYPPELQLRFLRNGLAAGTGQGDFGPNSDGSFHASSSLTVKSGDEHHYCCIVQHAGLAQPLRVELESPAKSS
T6 sequence (P61769 21-119 limits assumed, form in doubt, chain 2 of 2): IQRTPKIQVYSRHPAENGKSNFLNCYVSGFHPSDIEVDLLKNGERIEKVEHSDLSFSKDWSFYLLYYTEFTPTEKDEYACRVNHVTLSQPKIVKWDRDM
Description: as §3

[9] = biological target: T7, hFcγRIIa R131 (biotinylated avi-tagged, fused with monomeric Fc) (human, UniProt P12318 34-217, biotin on avi tag); experiment: BLI (Octet HTX, 30 °C), biotinylated Fc receptor on streptavidin biosensors, ADC as analyte, 1:1 fit, pH 7.4
T7 construct: also called hFcγRIIa R131 hmFc AAG avi Biotin
T7 sequence (looked up): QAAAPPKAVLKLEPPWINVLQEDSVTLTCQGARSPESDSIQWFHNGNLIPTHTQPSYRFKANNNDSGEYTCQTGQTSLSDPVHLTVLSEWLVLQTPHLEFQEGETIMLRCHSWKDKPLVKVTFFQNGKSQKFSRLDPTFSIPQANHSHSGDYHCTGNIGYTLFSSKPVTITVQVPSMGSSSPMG
Description: as §3

[10] = biological target: T8, soluble human ALPPL2-Fc fusion dimer (human, UniProt P10696 20-503); experiment: BLI, antibody on FAB2G biosensors, ALPPL2-Fc dimer as analyte, bivalent, pH 6.0, 37 C
T8 construct: Made in CHO cells; also called hALPPL2
T8 sequence (P10696 20-503 limits assumed): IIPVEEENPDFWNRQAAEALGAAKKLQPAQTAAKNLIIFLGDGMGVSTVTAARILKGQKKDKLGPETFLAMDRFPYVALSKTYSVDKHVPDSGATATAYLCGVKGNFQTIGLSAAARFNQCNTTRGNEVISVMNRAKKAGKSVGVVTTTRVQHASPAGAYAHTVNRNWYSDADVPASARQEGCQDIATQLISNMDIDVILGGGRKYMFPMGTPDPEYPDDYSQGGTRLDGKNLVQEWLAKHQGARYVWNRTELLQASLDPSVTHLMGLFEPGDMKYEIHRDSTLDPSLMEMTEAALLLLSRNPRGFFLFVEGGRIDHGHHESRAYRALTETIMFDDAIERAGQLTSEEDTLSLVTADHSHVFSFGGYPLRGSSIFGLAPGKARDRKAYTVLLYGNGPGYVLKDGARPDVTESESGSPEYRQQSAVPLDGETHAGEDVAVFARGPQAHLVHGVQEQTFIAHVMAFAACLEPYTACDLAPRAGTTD
Description: as §2
(§4) The only difference was the use of a different kinetic buffer (1% casein and 0.2% Tween20 in phosphate citrate pH 6.0).

[11] = biological target: T3, soluble human ALPP-Fc fusion dimer; experiment: BLI, antibody on FAB2G biosensors, ALPP-Fc dimer as analyte, bivalent, pH 6.0, 37 C
Description: as §2, §4

[12] = biological target: T3, soluble human ALPP-Fc fusion dimer; experiment: BLI (Octet Red 384), antibody on FAB2G biosensors, ALPP-Fc dimer as analyte, bivalent, pH 7.4, 37 C, 1:1 global fit
Description: as §2

[13] = biological target: T8, soluble human ALPPL2-Fc fusion dimer; experiment: BLI (Octet Red 384), antibody on FAB2G biosensors, ALPPL2-Fc dimer as analyte, bivalent, pH 7.4, 37 C, 1:1 global fit
Description: as §2

T1 sequence (P10696 20-503 limits assumed): as above

B1: murine antibody 12F3 (antibody, V domains shown)
VH: EVKLVESGGGLVQPGGSLSLSCAASGFTFTDYYMSWVRQPPGKALEWLALIRNKATGYTTEYSASVKGRFTISRDNSQSILYLQMNALRAEDSATYYCARASFYYDGKVLAYWGQGTLVTVSA
VL: DTQMTQSPSSLSASLGGKVTITCKASQDINKYIAWYQYKTGKGPRLLIHYTSTLQPGIPSRFSGSGSGRDYSFSISNLEPEDIATYYCLQYDNLYTFGGGTKLEIK
notes: mouse hybridoma antibody; also called SG82-12F3; m12F3
With B1 the “EC50 (read off the curve)” value (human ALPPL2 (on cells) [1]) was roughly 0.3 µg/mL, the “EC50 (read off the curve)” value (human ALPP (on cells) [2]) was roughly 0.3 µg/mL and the Kd (human ALPPL2 (on cells) [3]) was 1.48 nM. For the same binder, the Kd (human ALPP (on cells) [4]) was 1.76 nM.

B2: h12F3 HFLD (antibody, V domains shown)
VH: EVQLVESGGGLVQPGRSLRLSCTASGFTFTDYYMSWVRQAPGKGLEWLALIRNKATGYTTEYSASVKGRFTISRDNSKSILYLQMNSLKTEDTAVYYCARASFYYDGKVLAYWGQGTLVTVSS
VL: DTQMTQSPSSLSASVGDRVTITCQASQDINKYIAWYQQKPGKAPKLLIYYTSSLQPGVPSRFSGSGSGTDYTFTISSLQPEDIATYYCLQYDNLYTFGQGTKLEIKR
notes: humanized 12F3 IgG variant
B2 was tested, and the Kd [5] was 3.5 nM.

B3: h12F3 HGLF-mp-dLAE-MMAE (antibody)
VH: not shown
VL: DTQMTQSPSSLSASVGDRVTITCQASQDINKYLAWYQYKPGKAPKLLIHYTSSLQSGVPSRFSGSGSGRDYTFTISSLQPEDIATYYCLQYDNLYTFGQGTKLEIKRTVAAPSVFIFPPSDEQLKSGTASVVCLLNNFYPREAKVQWKVDNALQSGNSQESVTEQDSKDSTYSLSSTLTLSKADYEKHKVYACEVTHQGLSSPVTKSFNRGEC
modifications: mp-dLAE-PABC-MMAE drug-linker on cysteines of the partially reduced antibody, 4 loads per antibody (chain and site not stated)
notes: antibody-drug conjugate of h12F3 HGLF; also called h12F3-mp-dLAE-MMAE; HGLF-dLAE-MMAE(4); copies: 2 + 2
B3 showed a Kd [6] of 36000 nM, a Kd [7] of 1100 nM and a Kd [8] of 10.6 nM.

B4: h12F3 HGLF-mc-vc-MMAE (antibody)
VH: not shown
VL: DTQMTQSPSSLSASVGDRVTITCQASQDINKYLAWYQYKPGKAPKLLIHYTSSLQSGVPSRFSGSGSGRDYTFTISSLQPEDIATYYCLQYDNLYTFGQGTKLEIKRTVAAPSVFIFPPSDEQLKSGTASVVCLLNNFYPREAKVQWKVDNALQSGNSQESVTEQDSKDSTYSLSSTLTLSKADYEKHKVYACEVTHQGLSSPVTKSFNRGEC
modifications: mc-vc-PABC-MMAE drug-linker on cysteines of the partially reduced antibody, 4 loads per antibody (chain and site not stated)
notes: antibody-drug conjugate of h12F3 HGLF; also called h12F3 HGLF-me-vc-MMAE; h12F3 HGLF-vc-MMAE(4); copies: 2 + 2
For B4, the Kd [6] was 67000 nM, the Kd [9] was 7300 nM and the Kd [8] was 13.2 nM.

B5: h12F3 HGLF (antibody, V domains shown)
VH: EVQLVESGGGLVQPGRSLRLSCTASGFTFTDYYMSWVRQAPGKGLEWLALIRNKATGYTTEYTASVKGRFTISRDNSKSILYLQMNSLKTEDTAVYYCARASFYYDGKVLAYWGQGTLVTVSS
VL: DTQMTQSPSSLSASVGDRVTITCQASQDINKYLAWYQYKPGKAPKLLIHYTSSLQSGVPSRFSGSGSGRDYTFTISSLQPEDIATYYCLQYDNLYTFGQGTKLEIK
notes: Whole humanized IgG; also called humanized 12F3 HGLF; naked h12F3 antibody
With B5 the Kd [10] was 4.8 nM, the Kd [11] was 6.8 nM and the Kd [12] was 0.13 nM. For the same binder, the Kd [13] was 0.044 nM.
